Assay [1] addresses Methanothermobacter thermautotrophicus 70S ribosome (M. thermautotrophicus (endogenous in M. thermautotrophicus cells)) (UniProt O26110). The experiment in a line: MST; fluorescently labelled (DY-495) 70S, 50S or 30S kept constant, unlabelled aaRS or control protein titrated (mSerRS 2.5 nM-40.8 µM, ArgRS 5.6 nM-91.9 µM on 70S); 20 mM Tris-HCl pH 7.5, 150 mM NaCl, 6 mM MgCl2, 1 mM DTT, 0.05% Tween-20, 0.4 mg/ml BSA; hyperbolic fit.

The target of assay [2] is Methanothermobacter thermautotrophicus large ribosomal subunit (M. thermautotrophicus (endogenous in M. thermautotrophicus cells)) (UniProt O26110). Described as above.
Methanothermobacter thermautotrophicus large ribosomal subunit (M. thermautotrophicus (endogenous in M. thermautotrophicus cells)), sequence (O26110 whole entry, looked up, tested part not stated): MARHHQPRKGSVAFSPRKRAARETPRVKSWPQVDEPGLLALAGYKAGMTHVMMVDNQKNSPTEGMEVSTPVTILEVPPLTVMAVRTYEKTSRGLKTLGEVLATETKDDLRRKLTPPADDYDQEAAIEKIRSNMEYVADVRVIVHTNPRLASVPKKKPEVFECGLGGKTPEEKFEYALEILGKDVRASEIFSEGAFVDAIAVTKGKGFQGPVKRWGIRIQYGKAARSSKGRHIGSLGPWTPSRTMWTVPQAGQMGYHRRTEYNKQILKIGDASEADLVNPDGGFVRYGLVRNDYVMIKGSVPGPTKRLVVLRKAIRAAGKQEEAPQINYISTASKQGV

Methanothermobacter thermautotrophicus 70S ribosome (M. thermautotrophicus (endogenous in M. thermautotrophicus cells)), sequence (O26110 whole entry, looked up): as the sequence (O26110 whole entry, looked up, tested part not stated) above

B1: Methanothermobacter thermautotrophicus arginyl-tRNA synthetase (enzyme)
chain: MFRYIEKEARDSITAALEKLGIKVPPEIKLEEPPNPQLGDLASTVSFELAGKLRRAPIEITADIMSVIETPEIFETIESKGPYINFFVDYGRFSSRLLESIQDDYGSHPPRDERVILEHTSANPNGPLHIGHIRNAIIGDSLARILRMAGYDVETQYYVNDMGRQIAMIVWGLLNLDGDLEDYPGDKMDHRVGKLYFEVNQRLKENPGIRDEVDELIRKYEAGENEELFRKVVEYCLSGMEETMKRLHVHHDRFVWEGQFVRDGTVDRVIESLRKTGYTGENDVLYLDLEEFGLEKELVLTRSDGTSLYSTRDIAYHLQKSEEGDVIIDVLGSDHKLAAEQVGIAVELLGGKRPEVIFYEFITLPEGSMSTRRGVFISVDELMDEAHSRALHEVKKRRDLPDDVADDIAESIGNGAIRYYIARLSPEKHIVFRWDDALSFERGCASIQYAHARACKLLEKASFTGEEDIEDGWKPEGDERELVRLLARFPVVVEESALARRVHPVAQYAQDLANTFNSFYRSTPVIGSDFEGARLRLVDSVRKTLRNALNLLGIHAPETM
As usually defined, the Kd is the equilibrium constant for the complex coming apart. Low values mean tighter binding, high ones weaker binding. The molecule B1 displayed a Kd in assay [1] of 4700 nM.

B2: Methanothermobacter thermautotrophicus methanogenic-type seryl-tRNA synthetase (enzyme)
chain: MKFKLKGIIKLSKEVPGIEDDLEKFFTEAESDILRRGVPEGQEHEAAHIKSWRLEGDTLHIEMESGRRVRAHDGLLRLKKPLGQLLGPKYRVGVRGISVTDYTMEMKAPGVSGIPSLAELPFVEDAAITDGTIMVRFQPLEESDLRKHVFDRVVKHARTLVESSDDLTVQVTRATPGEIIARSRSRDFFFEGDPTEEAMRLGWVKKFPGRGQWFYGPKITALHRALEEFFIERIVKPLGFVECLFPKLIPLDIMNKMRYLEGLPEGMYYCSAPSRDPETFEEFKNELIINREVPMDLLKRGIKDPGYVIAPAQCEPFYQFLSHEVVSAEDLPVKFFDRSGWTYRWEAGGSKGLDRVHEFQRVELVWLAEPGETEEIRDRTVELSHDAADELELEWYTEVGDDPFYLEGRKVEERGIEFPDVPKYEMRLSLPGREKGVAVVSANVHGTHFIEGFSIREARNLNIWTGCTGIGLSRWIYGFLAQKGFETGNWPDFIGERVEGVENPRIITWPRQD
As to B2, the Kd in assay [2] was found to be 1290 nM; in assay [1], 1250 nM.

(Values after paper PMC4005694.)
